Measured values published in the supplement of paper PMC12042874.
± gives the uncertainty stated by the source.

assay: amyloid nucleation score (Sup35N fusion, yeast selection) (log enrichment); library NNK2; higher = more nucleation; inactive = no reads after selection
Outline: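 Sup35N fusions to peptides of 20 random codons were expressed in psi-negative yeast, induced 24 hours with 100 μM copper sulfate, and grown 7 days at 30°C on medium lacking adenine and uracil. Input and output plasmid inserts were sequenced by Illumina. The nucleation score is the DiMSum log enrichment of output over input reads, centred on the mode score of non-aggregating sequences. Sequences with under 100 input reads were excluded.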

Substance | amyloid nucleation score
WMRSIWLSQHFLS | 0.292 ± 0.41
WNINRIPFKVRWRAIFHMYH | -1.25 ± 0.37
WNTISRLCDLWLRVAYGSLV | 0.461 ± 0.65
WPKSAILIHCRVANGLCRFV | 6.586 ± 0.046
WPVHV | -1.38 ± 1.1
WPYGVGLINGWSTMVSYKVL | 0.325 ± 0.8
WQIGCLADIYSYLPDGNTVG | -0.389 ± 0.4
WQKLLIDYSSSTYDEALGT | 0.833 ± 0.8
WRAIALLEARTGSRQ | 1.08 ± 0.14
WRLVHCIHTIGYCMPVRLRG | 3.25 ± 0.088
WRPKPKWFLGGYGWTGERRL | 0.418 ± 0.51
WRSLLVLAFHLRLLYVSSMK | inactive
WRVGVK | 0.312 ± 0.25
WRYRHELEACWRHHSNSWYG | 3.96 ± 0.052
WSEISWTIQGCFVRHDALLG | 0.087 ± 0.56
WSGLNSNRSVDNPSISTGWS | -0.532 ± 0.56
WSKLYTFIFLASNKLLTWPC | inactive
WSLQSQGYRILDGYGV | 0.6 ± 0.44
WSMCFMPVRWSFSGTIYMHK | 0.472 ± 0.56
WSSHFWMFGSAVSQAWGRGW | 3.17 ± 0.074
WSVCARYSSGVCIAHCTQMK | 1.3 ± 0.25
WSVDYDGCLCS | -0.094 ± 0.45
WSVYKVLYCLTGFRFQRSRL | inactive
WSYHF | -0.305 ± 0.8

Substance | amyloid nucleation score
WSYRTESIHLYYLRPIFKIV | -1.11 ± 0.54
WTCAAFFEMDDRQGIVEIFI | 0.644 ± 0.81
WTDAKALGGLSLLIRWSLEE | 4.13 ± 0.087
WTHDVWSGSYEWARDGLDVK | -0.163 ± 0.79
WTMRDLCG | 0.526 ± 0.3
WTPVDVLCMIGMRSVCYINM | 1.79 ± 0.1
WTTRFSCITTFLRQCPYM | 0.148 ± 0.79
WTWTYARDVHTTLN | 1.13 ± 0.41
WTWVLMNIL | -1.76 ± 0.64
WVDMAL | 0.168 ± 0.8
WVDNRWEVSLSWAGYTIF | inactive
WVHVNSCELDSPGKAWGDTG | 1.11 ± 0.32
WVNSCVPGLARPNSLFFNRS | -0.491 ± 0.56
WVQHYCSEFLL | -0.313 ± 0.63
WVSVRKRHWTTHWLGVGVPN | 0.611 ± 0.66
WVTWLISCCYNRLEQGCLAF | 0.097 ± 0.63
WVVRPPDTLVLDETRVGSGM | 0.699 ± 0.34
WWETSIFFWEGIYT | -0.22 ± 0.8
WWEVIRLSLRS | 2.04 ± 0.13
WWRRRCR | 0.224 ± 0.3
WWTIIICNWSVSKGQDDNRA | 7.238 ± 0.059
WYCSHFISFHLESKF | 4.76 ± 0.11
WYFWGLHMIGVSTAISNPLR | -0.683 ± 1.1
WYLYFFVFLLHMNRNLFLVL | -1.63 ± 0.55

Substance | amyloid nucleation score
WYSNAVG | 1.57 ± 0.37
WYTDPDSDVAHYFAPQLK | -0.693 ± 1.1
WYVFACLVELYNCGPHGAID | inactive
WYVLAWDPPLSFMCLGDV | 0.666 ± 0.53
YAEHYWHLDNRTDWGIKEGY | -0.78 ± 0.61
YAGFVFFRTL | inactive
YALVVLIWT | -1.43 ± 1.1
YAMCPCVYNLDSQGAC | 3.85 ± 0.12
YAMGGGKGEDDLSCWYDYAC | 0.219 ± 0.47
YANMVRERINWI | 0.198 ± 0.28
YASTRRIGLEDIVW | -0.821 ± 0.78
YAVLSLKAWCLSG | 4.61 ± 0.054
YCCPYYRKVLF | -0.559 ± 0.61
YCFEADVARMIQVFLVFCAS | 0.259 ± 0.25
YCFFKVKTDLKTMCELGSTA | -0.122 ± 0.55
YCFMVRFRYGPLREMTNCSK | -0.34 ± 0.62
YCFRS | -0.542 ± 0.64
YCFVDALSCDLPNHEHMDVF | inactive
YCGTVFHGSRRECGISVRGW | 1.19 ± 0.33
YCLSDKWTLCG | 0.367 ± 0.41
YCLSSNVGVFKCFNGNVVYS | 3.54 ± 0.081
YCMMPATGICVLDVSVCRDT | 8.289 ± 0.054
